Key:
Format in all cases: biochemical
[1] = Enzymic reaction of UGT76G1 wild-type and mutants in vitro, substrate isoorientin, products detected by HPLC; details: for conversion efficiency of isoorientin (compound 1): HPLC analysis of FIG. 1; for conversion efficiency of isoorientin (compound 1) / glycosylation efficiency: in words; for yield of compound 2 as compared with the wild type / yield of compound 3 as compared with the wild type: substrate isoorientin 250 μM, 5 μg protein, 1.5 mM UDP-glucose, 37° C. overnight, HPLC peak area, 100% for the wild type; for glycosylation efficiency: substrate isoorientin, versus wild type
Experimental: The enzyme activity of the glycosyltransferase UGT76G1 mutant can be detected by a technique known in the art. In a specific example of the present invention, the enzyme reaction system with the same conditions is used to detect the enzyme activity of different mutants in vitro. After the reaction, the product was detected by HPLC. The change of a mutant's catalytic activity was analyzed by comparing the relative conversion ratio of the flavonoid isoorientin by the mutant and the wild-type protein.
(§1) The enzymic reaction system (50 μL) includes: 5 μg protein, 1.5 mM UDP-glucose, 250 μM glycosyl acceptor substrate isoorientin, orientin, apigenin or luteolin, and Buffer A (20 mM Tris-HCl, pH=8.0, 100 mM NaCl). The reaction of each mutant protein for the same substrate was repeated three times. Reaction conditions: 37° C. overnight. The reaction was quenched with an equal volume of methanol. After vigorous shaking, the reaction was centrifuged at 12000 rpm for 30 min. The supernatant was used for HPLC detection. Detection method: mobile phase A (acetonitrile, containing 0.1% formic acid)—mobile phase B (water, containing 0.1% formic acid) gradient elution. Chromatographic conditions: gradient elution from initial 5% A to 50% A within 11 min, elution at 100% A for 4 min, and back to 5% A within 1 min for equilibration for 4 min. The peak area of the catalytic product of the mutant was calculated and compared with the peak area of the catalytic product of wild-type UGT76G1.

[2] = Enzymic reaction of UGT76G1 wild-type and mutants in vitro, substrate orientin, products detected by HPLC; details: in words
Experimental: as §1

[3] = Enzymic reaction of UGT76G1 wild-type and mutants in vitro, substrate apigenin, products detected by HPLC; details: HPLC analysis of FIG. 7; compared with wild-type (WT) or mutants I90L, I199L; in words
Experimental: as §1

[4] = Enzymic reaction of UGT76G1 wild-type and mutants in vitro, substrate luteolin, products detected by HPLC; details: HPLC analysis of FIG. 8; compared with wild-type (WT) or mutants I90L, I199L; in words
Experimental: as §1

[5] = substrate orientin, versus wild type

Molecule | conversion efficiency of isoorientin (compound 1) [1] | conversion rate for orientin (compound 4) ([2]; HPLC analysis of FIG. 5) | glycosylation products of apigenin (compound 7) [3] | yield of compound 2 as compared with the wild type [1] [%] | yield of compound 3 as compared with the wild type [1] [%] | glycosylation efficiency [1] | glycosylation products of luteolin (compound 8) [4] | production efficiency of product 6 [2, 5] | production efficiency of product 5 [2, 5]
wild-type UGT76G1: wild-type glycosyltransferase UGT76G1 derived from Stevia rebaudiana, amino acid sequence of SEQ ID NO: 1 (protein, listed as Stevia rebaudiana) MENKTETTVRRRRRIILFPVPFQGHINPILQLANVLYSKGFSITIFHTNFNKPKTSNYPHFTFRFILDNDPQDERISNLPTHGPLAGMRIPIINEHGADELRRELELLMLASEEDEEVSCLITDALWYFAQSVADSLNLRRLVLMTSSLFNFHAHVSLPQFDELGYLDPDDKTRLEEQASGFPMLKVKDIKSAYSNWQILKEILGKMIKQTKASSGVIWNSFKELEESELETVIREIPAPSFLIPLPKHLTASSSSLLDHDRTVFQWLDQQPPSSVLYVSFGSSSEVDEKDFLEIARGLVDSKQSFLWVVRPGFVKGSTWVEPLPDGFLGERGRIVKWVPQQEVLAHGAIGAFWTHSGWNSTLESVCEGVPMIFSDFGLDQPLNARYMSDVLKVGVYLENGWERGEIANAIRRVMVDEEGEYIRQNARVLKQKADVSLMKGGSSYESLESLVSYISSL | low | a certain conversion rate |  |  |  |  |  |  | 
G87F: glycosyltransferase UGT76G1 mutant, mutation of G at 87th to F (SEQ ID NO: 2) (protein, Variant) MENKTETTVRRRRRIILFPVPFQGHINPILQLANVLYSKGFSITIFHTNFNKPKTSNYPHFTFRFILDNDPQDERISNLPTHGPLAFMRIPIINEHGADELRRELELLMLASEEDEEVSCLITDALWYFAQSVADSLNLRRLVLMTSSLFNFHAHVSLPQFDELGYLDPDDKTRLEEQASGFPMLKVKDIKSAYSNWQILKEILGKMIKQTKASSGVIWNSFKELEESELETVIREIPAPSFLIPLPKHLTASSSSLLDHDRTVFQWLDQQPPSSVLYVSFGSSSEVDEKDFLEIARGLVDSKQSFLWVVRPGFVKGSTWVEPLPDGFLGERGRIVKWVPQQEVLAHGAIGAFWTHSGWNSTLESVCEGVPMIFSDFGLDQPLNARYMSDVLKVGVYLENGWERGEIANAIRRVMVDEEGEYIRQNARVLKQKADVSLMKGGSSYESLESLVSYISSL | relatively the highest |  | significantly different from those converted by wild-type | 1381 | 1235 | significantly increased | significantly different from those converted by wild-type |  | 
L379W: glycosyltransferase UGT76G1 mutant, mutation of L at 379th to W (SEQ ID NO: 5) (protein, Variant) MENKTETTVRRRRRIILFPVPFQGHINPILQLANVLYSKGFSITIFHTNFNKPKTSNYPHFTFRFILDNDPQDERISNLPTHGPLAGMRIPIINEHGADELRRELELLMLASEEDEEVSCLITDALWYFAQSVADSLNLRRLVLMTSSLFNFHAHVSLPQFDELGYLDPDDKTRLEEQASGFPMLKVKDIKSAYSNWQILKEILGKMIKQTKASSGVIWNSFKELEESELETVIREIPAPSFLIPLPKHLTASSSSLLDHDRTVFQWLDQQPPSSVLYVSFGSSSEVDEKDFLEIARGLVDSKQSFLWVVRPGFVKGSTWVEPLPDGFLGERGRIVKWVPQQEVLAHGAIGAFWTHSGWNSTLESVCEGVPMIFSDFGWDQPLNARYMSDVLKVGVYLENGWERGEIANAIRRVMVDEEGEYIRQNARVLKQKADVSLMKGGSSYESLESLVSYISSL |  |  |  |  |  |  |  | can increase | 
L204F: glycosyltransferase UGT76G1 mutant, mutation of L at 204th to F (SEQ ID NO: 4) (protein, Variant) MENKTETTVRRRRRIILFPVPFQGHINPILQLANVLYSKGFSITIFHTNFNKPKTSNYPHFTFRFILDNDPQDERISNLPTHGPLAGMRIPIINEHGADELRRELELLMLASEEDEEVSCLITDALWYFAQSVADSLNLRRLVLMTSSLFNFHAHVSLPQFDELGYLDPDDKTRLEEQASGFPMLKVKDIKSAYSNWQILKEIFGKMIKQTKASSGVIWNSFKELEESELETVIREIPAPSFLIPLPKHLTASSSSLLDHDRTVFQWLDQQPPSSVLYVSFGSSSEVDEKDFLEIARGLVDSKQSFLWVVRPGFVKGSTWVEPLPDGFLGERGRIVKWVPQQEVLAHGAIGAFWTHSGWNSTLESVCEGVPMIFSDFGLDQPLNARYMSDVLKVGVYLENGWERGEIANAIRRVMVDEEGEYIRQNARVLKQKADVSLMKGGSSYESLESLVSYISSL |  |  | significantly different from those converted by wild-type | 285 | 159 | significantly increased | significantly different from those converted by wild-type |  | can increase
I199F: glycosyltransferase UGT76G1 mutant, mutation of I at 199th to F (SEQ ID NO: 3) (protein, Variant) MENKTETTVRRRRRIILFPVPFQGHINPILQLANVLYSKGFSITIFHTNFNKPKTSNYPHFTFRFILDNDPQDERISNLPTHGPLAGMRIPIINEHGADELRRELELLMLASEEDEEVSCLITDALWYFAQSVADSLNLRRLVLMTSSLFNFHAHVSLPQFDELGYLDPDDKTRLEEQASGFPMLKVKDIKSAYSNWQFLKEILGKMIKQTKASSGVIWNSFKELEESELETVIREIPAPSFLIPLPKHLTASSSSLLDHDRTVFQWLDQQPPSSVLYVSFGSSSEVDEKDFLEIARGLVDSKQSFLWVVRPGFVKGSTWVEPLPDGFLGERGRIVKWVPQQEVLAHGAIGAFWTHSGWNSTLESVCEGVPMIFSDFGLDQPLNARYMSDVLKVGVYLENGWERGEIANAIRRVMVDEEGEYIRQNARVLKQKADVSLMKGGSSYESLESLVSYISSL |  |  |  | 799 | 278 | significantly increased |  |  | 

From US12448610B2, “Preparation of glycosyltransferase UGT76G1 mutant and use thereof” (CAS Center for Excellence in Molecular Plant Sciences, priority 2019, dated 2025)
